Measured values: patent publication US20170258948A1 (Bristol-Myers Squibb, published 2017)
One block for each binder: values may come before it.

Key:
[1] = target: T1, human PD-L1 (Programmed Death Ligand-1), protein used in Biacore and ELISA (human, UniProt Q9NZQ7 19-239); assay: ELISA, inhibition of binding of human CD80 (B7-1) to human PD-L1
T1 construct: also called hPD-L1; CD274

[2] = target: T1, human PD-L1 (Programmed Death …); assay: SPR (Biacore), human PD-L1
cyno PD-L1 = target: T2, cyno PD-L1 (cyno (cynomolgus monkey), UniProt G7PSE7 19-239); assay: SPR (Biacore), cyno PD-L1
T2 construct: also called cynomolgus PD-L1
T2 sequence (G7PSE7 entry or part of it): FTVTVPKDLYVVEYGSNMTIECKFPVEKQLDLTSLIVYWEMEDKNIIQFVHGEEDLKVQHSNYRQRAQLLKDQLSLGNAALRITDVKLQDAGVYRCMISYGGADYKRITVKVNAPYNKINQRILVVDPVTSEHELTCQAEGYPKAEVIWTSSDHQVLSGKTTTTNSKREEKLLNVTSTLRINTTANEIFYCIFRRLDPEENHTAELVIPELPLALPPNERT

[3] = target: T3, human PD-L1 expressed on cells (hPD-L1-positive L2987 human lung carcinoma cells); L2987 xenograft and human … (human, UniProt Q9NZQ7 19-290); assay: cell-based or functional assay
T3 sequence (Q9NZQ7 19-290): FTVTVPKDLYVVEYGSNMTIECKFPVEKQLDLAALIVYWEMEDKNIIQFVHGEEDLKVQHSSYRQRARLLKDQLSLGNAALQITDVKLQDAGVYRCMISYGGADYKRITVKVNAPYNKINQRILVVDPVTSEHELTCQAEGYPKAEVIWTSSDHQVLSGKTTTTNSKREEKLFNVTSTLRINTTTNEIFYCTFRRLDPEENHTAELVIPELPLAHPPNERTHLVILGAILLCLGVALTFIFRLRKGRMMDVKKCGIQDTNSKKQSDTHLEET

[4] = target: T1, human PD-L1 (Programmed Death …); assay: summary sentence on the binding data (Biacore); limit tied to E01 by Table 2
[5] = target: T1, human PD-L1 (Programmed Death …); assay: method not stated (Table 1, binding properties of anti-PD-L1 Adnectins)
[6] = target: T3, human PD-L1 expressed on cells …; assay: radiotracer binding to cells on ice, gamma counting
Protocol: After the incubation period, cell samples were centrifuged at 200×g and the supernatant was discarded. Cell pellets were resuspended in 1 mL PBS+0.5% BSA and the wash procedure repeated for a total of 3 washes. Following the final wash, cells were again centrifuged at 200×g and the supernatant was discarded. The radioactivity of the remaining cell pellets was then measured by gamma counter.

[7] = target: T1, human PD-L1 (Programmed Death …); assay: summary sentence on the binding data (Biacore); limit tied to A02 by Table 2
[8] = target: T3, human PD-L1 expressed on cells …; assay: cell binding to human PD-L1 positive L2987 cells; Cys-capped form; Cys-capped form

T1 sequence (Q9NZQ7 19-239 limits assumed): as the sequence (G7PSE7 entry or part of it) above, with T33A, S34A, N62S, Q68R, R82Q, L173F, A185T, I192T, L215H counted along it

Kd (cyno PD-L1): 0.038 nM
B1: ATI-966 (designed binder)
chain: MGVSDVPRDLEVVAATPTSLLISWHRFSSIMAYYRITYGETGGNSPVQEFTVAGSVNTATISGLKPGVDYTITVYAVTIHNVSFPISINYRTEIDKPSQHHHHHH
notes: 10Fn3 Adnectin
EC50 [1]: 0.028 nM | Kd [2]: 0.028 nM | koff [2]: 6.9e-05 s⁻¹ | kon [2]: 2.5e+06 M⁻¹ s⁻¹

Kd (cyno PD-L1): 0.06 nM
B2: ATI-967 (designed binder)
chain: MGVSDVPRDLEVVAATPTSLLISWQGQLSPSFYYRITYGETGGNSPVQEFTVPVASGTATISGLKPGVDYTITVYAVTSHGIYFYAPISINYRTEIDKPSQHHHHHH
notes: 10Fn3 Adnectin; also called parent of ADX_5417_E01
Kd [2]: 0.032 nM | koff [2]: 6.7e-05 s⁻¹ | kon [2]: 2.1e+06 M⁻¹ s⁻¹

Kd (cyno PD-L1): 0.14 nM
B3: ATI-964 (designed binder)
chain: MGVSDVPRDLEVVAATPTSLLISWSYDGSIERYYRITYGETGGNSPVQEFTVPPDQKTATISGLKPGVDYTITVYAVRLEEAHYYRESPISINYRTEIDKPSQHHHHHH
notes: 10Fn3 Adnectin; also called parent of ADX_5322_A02
EC50 [1]: 0.041 nM | Kd [2]: 0.21 nM | koff [2]: 7.7e-05 s⁻¹ | kon [2]: 360000 M⁻¹ s⁻¹

PET radiotracer uptake in hPD-L1(+) L2987 xenografts relative to hPD-L1(-) HT-29 xenografts in mice (final 10 minutes of the 2 h time-activity curve) [3]: 3.05 fold
B4: ^64Cu-A02-NODAGA (designed binder)
chain: GVSDVPRDLEVVAATPTSLLISWSYDGPIDRYYRITYGETGGNSPVQEFTVPPDQKTATISGLKPGVDYTITVYAVRLEEAHYNREFPISINYRTPC
modifications: C-terminal cysteine (of the added PC) linked to maleimide-NODAGA chelating ^64Cu

maximum radiotracer uptake ratio in hPD-L1(+) L2987 xenografts vs. hPD-L1(-) HT-29 xenografts (PET, mice) [3]: 3.53 ratio
B5: ^18F-A02 Adnectin ([^18F]-A02-4PEG-DBCO-FPPEGA) (designed binder)
chain: B4 chain
modifications: C-terminal cysteine linked to Maleamide-DBCO-FFP(18F) (maleimide-PEG4-DBCO clicked with [^18F]-FPPEGA)

B6: ADX_5417_E01 (designed binder)
chain: MGVSDVPRDLEVVAATPTSLLISWRAQLSPSFYYRITYGETGGNSPVQEFTVPNDVMTATISGLKPGVDYTITVYAVTTHGVYFYSPISINYRTPCHHHHHH
Kd [2]: 0.013 nM | koff [2]: 0.00026 s⁻¹ | kon [2]: 2e+07 M⁻¹ s⁻¹ | Kd [4]: < 0.1 nM

Kd (cyno PD-L1): 0.8 nM
B7: ATI-965 (designed binder)
chain: MGVSDVPRDLEVVAATPTSLLISWTAYDSVDKYYRITYGETGGNSPVQEFTVGPRHHTATISGLKPGVDYTITVYAVYHTEPGYHAHMPISINYRTEIDKPSQHHHHHH
notes: 10Fn3 Adnectin
EC50 [1]: 0.21 nM | Kd [2]: 0.71 nM | koff [2]: 0.00033 s⁻¹ | kon [2]: 460000 M⁻¹ s⁻¹

B8: ATI-1420B09 (designed binder)
chain: MGVSDVPRDLEVVAATPTSLLISWHKFSSLMSYRITYGETGGNSPVQEFTVGSVNATISGLKPGVDYTITVYAIHNVGFISINYRTEIDKPSQHHHHHH
notes: 10Fn3 Adnectin
Kd [5]: 2.5 nM

B9: ATI-1420D05 (designed binder)
chain: MGVSDVPRDLEVVAATPTSLLISWTAYYSTIKYRITYGETGGNSPVQEFTVGPKHHATISGLKPGVDYTITVYAYNTKPGYHAHQISINYRTEIDKPSQHHHHHH
notes: 10Fn3 Adnectin
Kd [5]: 9.5 nM

fold higher cell associated radioactivity against hPD-L1-negative HT-29 cells [6]: 44.6 fold
B10: ^64Cu-E01-NODAGA (designed binder)
chain: GVSDVPRDLEVVAATPTSLLISWRAQLSPSFYYRITYGETGGNSPVQEFTVPNDVMTATISGLKPGVDYTITVYAVTTHGVYFYSPISINYRTPC
modifications: C-terminal cysteine (of the added PC) linked to maleimide-NODAGA chelating ^64Cu
notes: Modified E01 (ADX_5417_E01 with N leader and C-terminal PC); also called ^64Cu-E01 anti-PD-L1 Adnectin

PET uptake of ^64Cu-A02 in hPD-L1(+) L2987 relative to hPD-L1(-) HT-29 xenografts when co-injected with 3 mg/kg unlabeled A02 Adnectin [3]: 1.04 fold
B11: cold (unlabeled) A02 Adnectin (designed binder)
chain: EVVAATPTSLLISWSYDGPIDRYYRITYGETGGNSPVQEFTVPPDQKTATISGLKPGVDYTITVYAVRLEEAHYNREFPISINYRT

B12: ATI-1421E04 (designed binder)
chain: MGVSDVPRDLEVVAATPTSLLISWSYNGPIEYRITYGETGGNSPVQEFTVPDQQATISGLKPGVDYTITVYALEEAHYSRQSISINYRTEIDKPSQHHHHHH
notes: 10Fn3 Adnectin; also called AT1-1421E04
Kd [5]: 5.6 nM

Kd (cyno PD-L1): 0.11 nM
B13: ATI-968 (designed binder)
chain: MGVSDVPRDLEVVAATPTSLLISWIAPFYNVIYYRITYGETGGNSPVQEFTVPGTGYTATISGLKPGVDYTITVYAVTDGASIASYAFPISINYRTEIDKPSQHHHHHH
notes: 10Fn3 Adnectin; also called ADX_1760_C01
EC50 [1]: 0.056 nM | Kd [2]: 0.16 nM | koff [2]: 0.00012 s⁻¹ | kon [2]: 750000 M⁻¹ s⁻¹

B14: ADX_5322_A02 (designed binder)
chain: MGVSDVPRDLEVVAATPTSLLISWSYDGPIDRYYRITYGETGGNSPVQEFTVPPDQKTATISGLKPGVDYTITVYAVRLEEAHYNREFPISINYRTPCHHHHHH
Kd [2]: 0.228 nM | koff [2]: 0.00057 s⁻¹ | kon [2]: 2.5e+06 M⁻¹ s⁻¹ | Kd [7]: < 1 nM

EC50 [8]: 0.43 nM
B15: ADX_5322_A02 (Cys-Capped) (designed binder)
chain: B14 chain
modifications: Cys-Capped (so in the source); capping group not stated
